Experiment [1] concerns the target T1, Human plasma plasmin (Homo sapiens, UniProt P00747).
T1 construct: (6) Human plasma plasmin (Kabi, Daiichi Kagaku Yakuhin); purchased Kabi (via Daiichi Kagaku Yakuhin); host or cells: human plasma
Nature of the experiment: Assay for plasmin inhibitory activity (Example 25). To be noted: final concentration up to ×10^-5 M; enzyme 1.0 × 10^-7 M. Type of experiment: biochemical. The method, then:
G. Human plasma plasmin (sigma)
Plasmin: 50 mM Tris-HCl, 100 mM NaCl (pH 7.4) […]
(§1) Substrate solution: for the enzymes F, G, H and I, the following substrate f, g, h or i, respectively, was dissolved to a final concentration shown in Table 14.
g. H.D-Val-Leu-Lys-pNA (Kabi Vitrum)
(§2) To wells of an ELISA 96-well microtiter plate, were added a solution of (Arg^59 -Ala^107) SLPI obtained in Example 23 and then the enzyme solution, and the mixture was incubated at 37° C. for 10 minutes. Next, the substrate solution was added to develop the color, whose absorption was then measured at 405 nm. As a control, SLPI was used.

The target in experiment [2] is elastase and trypsin. To be noted: R. C. Thompson et al., Proc. Natl. Acad. Sci. USA, 83, 6692; cited from earlier work.
Experiment [3] concerns the target T2, Human plasma kallikrein (Homo sapiens, UniProt P03952).
T2 construct: (7) Human plasma kallikrein (Kabi, Daiichi Kagaku Yakuhin); purchased Kabi (via Daiichi Kagaku Yakuhin); host or cells: human plasma
The experiment is described as follows: Assay for kallikrein inhibitory activity (Example 25). Type of experiment: biochemical. To be noted: final concentration up to ×10^-5 M; enzyme 1.0 × 10^-7 M. The method, then: (§3) H. Human plasma kallikrein (Protogene, Funakoshi Yakuhin)
Kallikrein: 50 mM Tris-HCl, 361 mM NaCl, 0.01 mg/ml polybrene (pH 7.8) […]
as §1
(§4) h. H.D-Pro-Phe-Arg-pNA (Kabi Vitram)
as §2

Experiment [4] has as its target T3, Bovine spleen trypsin (Bos taurus, UniProt P00760).
T3 construct: purchased Sigma
T3 sequence (P00760 24-246): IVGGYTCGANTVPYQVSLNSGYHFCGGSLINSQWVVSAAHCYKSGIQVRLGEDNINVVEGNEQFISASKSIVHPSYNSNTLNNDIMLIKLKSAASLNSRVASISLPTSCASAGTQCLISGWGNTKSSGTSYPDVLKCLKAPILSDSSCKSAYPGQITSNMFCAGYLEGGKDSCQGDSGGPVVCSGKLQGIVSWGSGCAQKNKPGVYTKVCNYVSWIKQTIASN
Nature of the experiment: Assay for trypsin inhibitor activity (Example 24). To be noted: enzyme 2 × 10^-7 M, substrate 1.0 × 10^-3 M. Type of experiment: biochemical. On the procedure:
(§5) The following assay method was used.
(§6) Buffer: 0.1M (2-hydroxyethyl)piperazine-N'-2-ethansulfonic acid (HEPES), 0.5M NaCl, pH 7.5.
(§7) Enzyme concentration: the following enzyme was dissolved in the above-mentioned buffer to a concentration 9 times that shown in Table 12.
B. Bovine spleen trypsin (Sigma)
Substrate solution: for the enzymes A, B, C, D and E, the following substrate a, b, c, d or e, respectively, was dissolved in a solution of DMSO+the above-mentioned buffer (1:9) (note, final concentration of DMSO was 10% in the buffer) to a concentration of 9 times that shown in Table 12. […]
(§8) To wells of an ELISA 96-well microtiter plate, were added 120 μl of the buffer and the 20 μl of a sample solution of (Arg^59 -Ala^107) SLPI obtained in Example 23, followed by 20 μl of the enzyme solution. The mixture was reacted at 37° C. for 10 minutes. Next, 20 μl of the substrate was added, and developed at 37° C. The developed color was measured by absorption at 405 nm.
(§9) As a control the same procedure was carried out using SLPI.

Experiment [5] deals with T4, Human plasma thrombin (Homo sapiens, UniProt P00734).
T4 construct: (5) Human plasma thrombin (Kabi, Daiichi Kagaku Yakuhin); purchased Kabi (via Daiichi Kagaku Yakuhin); host or cells: human plasma
Nature of the experiment: Assay for thrombin inhibitory activity (Example 25). Type of experiment: biochemical. To be noted: final concentration up to ×10^-5 M; enzyme 3 × 10^-9 M. On the procedure: F. Human plasma thrombin (Sigma)
Buffer: Buffer solution for each enzyme is as follow. Thrombin and FXa: 50 mM Tris-HCl, 7.5 mM EDTA-2Na, 175 mM NaCl (pH 8.4) […]
as §1
f. H.D-Phe-Pip-Arg-pNA (Kabi Vitrum)
as §2

Experiment [6] deals with T2, Human plasma kallikrein. The experiment is described as follows: Assay for kallikrein inhibitory activity (Example 36). Format: biochemical. To be noted: final concentration up to ×10^-5 M; enzyme 1.0 × 10^-7 M. The method, then:
as §3
Kallikrein: 50 mM Tris-HCl, 361 mM NaCl, 0.01 mg/ml Polybrene (pH 7.8) […]
Substrate solution: for the enzymes F, G, H and I, the following substrate f, g, h or i, respectively, was dissolved to a final concentration shown in Table 24.
as §4
To wells of an ELISA 96-well microtiter plate, were added a solution of (Arg^58 -Ala^107) SLPI obtained in Example 34 and then the enzyme solution, and the mixture was incubated at 37° C. for 10 minutes. Next, the substrate solution was added to develop the color, whose absorption was then measured at 405 nm. As a control, SLPI was used.

Experiment [7] addresses T5, polymorphonuclear leucocyte elastase from human sputum (Homo sapiens, UniProt P08246).
T5 construct: Polymorphonuclear leukocyte elastase from human sputum (EPC Co; Funakoshi Yakuhin); purchased EPC Co. (via Funakoshi Yakuhin); host or cells: human sputum
T5 sequence (P08246 30-267): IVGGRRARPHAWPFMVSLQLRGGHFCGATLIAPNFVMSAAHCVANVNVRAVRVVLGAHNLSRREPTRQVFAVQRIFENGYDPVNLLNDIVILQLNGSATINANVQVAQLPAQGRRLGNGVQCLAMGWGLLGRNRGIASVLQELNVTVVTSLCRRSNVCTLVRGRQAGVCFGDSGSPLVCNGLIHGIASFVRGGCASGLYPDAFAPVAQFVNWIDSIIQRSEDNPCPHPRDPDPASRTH
The experiment is described as follows: Assay for elastase inhibitor activity (Example 24). Format: biochemical. To be noted: enzyme 2 × 10^-8 M, substrate 3.0 × 10^-4 M. On the procedure:
as §5, §6, §7
A. Polymorphonuclear leucocyte elastase from human sputum (EPC Co., Funakoshi Yakuhin)
Substrate solution: for the enzymes A, B, C, D and E, the following substrate a, b, c, d or e, respectively, was dissolved in a solution of DMSO+the above-mentioned buffer (1:9) (note, final concentration of DMSO was 10% in the buffer) to a concentration of 9 times that shown in Table 12.
a. MeO-Suc-Ala-Ala-Pro-Val-pNA (Bachem) […]
as §8, §9

T2 sequence (P03952 391-638 limits assumed): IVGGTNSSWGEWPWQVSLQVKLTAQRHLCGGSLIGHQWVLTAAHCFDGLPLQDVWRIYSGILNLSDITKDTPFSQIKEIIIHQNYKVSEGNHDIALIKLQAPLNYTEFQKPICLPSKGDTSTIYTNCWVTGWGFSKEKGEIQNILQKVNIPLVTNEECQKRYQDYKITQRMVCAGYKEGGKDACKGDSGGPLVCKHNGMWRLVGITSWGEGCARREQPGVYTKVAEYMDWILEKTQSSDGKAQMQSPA
T2 sequence (P03952 20-390 partner limits assumed): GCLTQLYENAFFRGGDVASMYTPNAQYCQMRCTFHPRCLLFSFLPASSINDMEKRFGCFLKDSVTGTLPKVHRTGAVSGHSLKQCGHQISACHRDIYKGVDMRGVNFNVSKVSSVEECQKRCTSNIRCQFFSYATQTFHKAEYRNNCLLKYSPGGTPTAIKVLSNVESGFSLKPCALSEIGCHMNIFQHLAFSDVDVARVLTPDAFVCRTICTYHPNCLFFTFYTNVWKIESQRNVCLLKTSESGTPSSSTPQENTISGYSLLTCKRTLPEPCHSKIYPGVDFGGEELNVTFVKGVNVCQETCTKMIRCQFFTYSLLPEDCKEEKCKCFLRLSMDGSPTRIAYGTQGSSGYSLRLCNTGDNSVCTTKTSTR
T1 sequence (P00747 581-810 limits assumed): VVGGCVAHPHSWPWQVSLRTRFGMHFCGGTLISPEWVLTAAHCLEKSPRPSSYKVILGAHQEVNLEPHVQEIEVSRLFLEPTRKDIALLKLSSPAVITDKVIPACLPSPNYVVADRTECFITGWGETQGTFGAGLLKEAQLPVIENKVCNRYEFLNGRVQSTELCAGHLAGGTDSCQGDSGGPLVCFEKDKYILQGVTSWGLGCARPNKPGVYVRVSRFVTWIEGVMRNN
T1 sequence (P00747 97-580 partner limits assumed): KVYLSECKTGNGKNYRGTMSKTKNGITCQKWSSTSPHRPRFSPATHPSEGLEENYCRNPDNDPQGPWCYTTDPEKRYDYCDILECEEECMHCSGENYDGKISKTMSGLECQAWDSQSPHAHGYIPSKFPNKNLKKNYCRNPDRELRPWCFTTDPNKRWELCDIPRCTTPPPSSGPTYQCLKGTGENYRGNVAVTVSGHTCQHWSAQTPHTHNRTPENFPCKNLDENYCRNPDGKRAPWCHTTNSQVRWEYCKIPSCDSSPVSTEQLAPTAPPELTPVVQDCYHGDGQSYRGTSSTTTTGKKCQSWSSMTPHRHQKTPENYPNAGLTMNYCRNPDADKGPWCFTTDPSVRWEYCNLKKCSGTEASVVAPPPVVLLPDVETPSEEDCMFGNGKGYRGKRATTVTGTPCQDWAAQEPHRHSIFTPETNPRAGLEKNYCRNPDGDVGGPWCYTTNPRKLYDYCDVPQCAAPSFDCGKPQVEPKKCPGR

B1: SLPI: Human secretory leukoprotease inhibitor; recombinant SLPI of Reference Example 1 used as control (protein)
chain: SGKSFKAGVCPPKKSAQCLRYKKPECQSDWQCPGKKRCCPDTCGIKCLDPVDTPNPTRRKPGKCPVTYGQCLMLNPPNFCEMDGQCKRDLKCCMGMCGKSCVSPVKA
A word on the IC50: it is the concentration that gives 50% inhibition. Low readings indicate inhibition by little substance, high ones a need for much substance. As for B1, the “inhibitory activity to plasmin” value in experiment [1] is “did not exhibit inhibitory activity”. Also, the “Ki(E) compared with Ki(T)” value in experiment [2] is listed as “Ki(E) is roughly equivalent to Ki(T)”. Further, the “inhibitory activity to kallikrein” value in experiment [3] and in experiment [6] was “did not exhibit inhibitory activity” throughout. Also, the 50% inhibitory concentration (IC50) in experiment [4] came out at 330 nM; in experiment [7], 13 nM. The “inhibitory activity to thrombin” value in experiment [5] is on record as “did not exhibit inhibitory activity”.
